The values that follow come from patent publication US5719041.

Among the targets are Bovine trypsin (bovine) (UniProt P00760); Human thrombin (human) (UniProt P00734); Human plasmin (human) (UniProt P00747); Human Factor XIa (human) (UniProt P03951).
The target of test [1] is Human Factor XIIa (human) (UniProt P00748).
For test [2], the target named is Human plasma kallikrein (human) (UniProt P03952).
For test [3], the target named is Human Factor Xa (human) (UniProt P00742).
Test [4] deals with Human Factor XIIa (human) (UniProt P00748). This is another data set of the same source.
The target in test [5] is Human leukocyte elastase (human) (UniProt P08246).
For test [6], the target named is Single chain tissue plasminogen activator (human) (UniProt P00750).
The target of test [7] is Human plasma kallikrein (human) (UniProt P03952). The source holds these as a separate data set.
Test [8] deals with Human activated protein C (human) (UniProt P04070).
For test [9], the target named is Bovine chymotrypsin (bovine) (UniProt P00766).
Test [10] addresses Tissue factor·Factor VIIa complex (human Factor VIIa with recombinant human TF1-243) (human) (UniProt P08709).
Test [11] addresses Human Factor Xa (human) (UniProt P00742). The source holds these as a separate data set.
Test [12] has as its target T1, MeOSuc-Ala-Ala-Pro-Val-MCA.
T1 sequence (peptide, N-terminal MeOSuc; C-terminal MCA): AAPV

Chain of Human leukocyte elastase (P08246 30-247 limits assumed): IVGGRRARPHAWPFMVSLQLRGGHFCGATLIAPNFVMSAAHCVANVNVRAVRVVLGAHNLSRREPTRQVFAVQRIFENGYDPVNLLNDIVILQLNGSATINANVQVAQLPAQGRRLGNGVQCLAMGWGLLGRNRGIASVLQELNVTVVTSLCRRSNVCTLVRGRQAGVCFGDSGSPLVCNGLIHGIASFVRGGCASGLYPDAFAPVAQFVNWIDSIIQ

As to “Ecotin (recombinant wild type, E. coli periplasmic protein, 142 amino acid residues) (from UniProt P23827)”, the concentration giving 10-fold prolongation of clotting time, APTT assay in normal human plasma in [1] and in test [2] was 0.3 µM in each case. In the test with Human Factor Xa (human) [3], this substance registered a concentration giving 10-fold prolongation of clotting time, PT assay in normal human plasma of 2 µM. Further, the Percent Activity of protease with 100 nM inhibitor in test [4] came to 0%; with Bovine trypsin (bovine), 0%; in [5], 0%; in test [6], 100%; in test [7], 0%; with Human thrombin (human), 98%. The Percent Activity of protease with 100 nM inhibitor amounted to 99% in test [8]; 0% in [9]; 99% in test [10]; 100% with Human plasmin (human); 79% with Human Factor XIa (human); 0% with Human Factor Xa (human) [11].
Regarding “Ecotin M84K mutant (from UniProt P23827)”, the Percent Activity of protease with 100 nM inhibitor was 0% in test [4]; 0% with Bovine trypsin (bovine); 85% in test [5]; 100% in [6]; 2% in test [7]; 16% with Human thrombin (human). For the same substance, the Percent Activity of protease with 100 nM inhibitor was 65% in test [8]; 1% in [9]; 92% in [10]; 9% with Human plasmin (human); 12% with Human Factor XIa (human); 2% in the test with Human Factor Xa (human) [11].
Turning to “Human leukocyte elastase (from UniProt P08246) (enzyme)”, in test [12], the Km of the substrate with HLE was 0.15 mM.
Consider “Ecotin M84R mutant (from UniProt P23827)”, for which the Percent Activity of protease with 100 nM inhibitor in test [4] came out at 1%; in the test with Bovine trypsin (bovine), 0%; in test [5], 88%; in test [6], 100%; in test [7], 1%; with Human thrombin (human) it was 4%. The Percent Activity of protease with 100 nM inhibitor in test [8] came out at 50%; in test [9], 0%; in test [10], 87%; with Human plasmin (human), 10%; in the test with Human Factor XIa (human), 5%; with Human Factor Xa (human) [11], 1%.
